Assay results as given in patent US20240294634A1 (INNATE PHARMA, published 2024).
One block for each binder: values may come before it.

What was measured:
[1] = biological target: T1, ILT-2_6×His recombinant protein (human, UniProt Q8NHL6 24-458); test: SPR, mAb captured on Protein-A, soluble ILT2 analyte
T1 construct: also called recombinant 6×HIS tagged ILT2; recombinant human ILT2 proteins
Experimental: Measurements were performed on a Biacore T200 apparatus (Biacore GE Healthcare) at 25° C. In all Biacore experiments HBS-EP+ (Biacore GE Healthcare) and NaOH 10 mM served as running buffer and regeneration buffer respectively. Sensorgrams were analyzed with Biacore T100 Evaluation software. Protein-A was purchased from (GE Healthcare). Human ILT2 recombinant proteins were cloned, produced and purified at Innate Pharma. Protein-A proteins were immobilized covalently to carboxyl groups in the dextran layer on a Sensor Chip CM5. The chip surface was activated with EDC/NHS (N-ethyl-N′-(3-dimethylaminopropyl) carbodiimidehydrochloride and N-hydroxysuccinimide (Biacore GE Healthcare)). Protein-A was diluted to 10 μg/ml in coupling buffer (10 mM acetate, pH 5.6) and injected until the appropriate immobilization level was reached (i.e. 2000 RU). Deactivation of the remaining activated groups was performed using 100 mM ethanolamine pH 8 (Biacore GE Healthcare). […] For blank subtraction, cycles were performed again replacing ILT2 proteins with running buffer. The monovalent affinity analysis was conducted following a regular Capture-Kinetic protocol as recommended by the manufacturer (Biacore GE Healthcare kinetic wizard). Seven serial dilutions of human ILT2 proteins, ranging from 6.25 to 400 nM were sequentially injected over the captured antibodies and allowed to dissociate for 10 min before regeneration. The entire sensorgram sets were fitted using the 1:1 kinetic binding model.

ILT2 mutant 4-1 = biological target: T2, ILT2 mutant 4-1 (human, UniProt Q8NHL6 24-650); test: flow cytometry, HEK293T cells with ILT2 mutant
T2 construct: Transfected in HEK-293T cells
T2 sequence (Q8NHL6 other isoform, or with tags, fused parts or gaps mutant): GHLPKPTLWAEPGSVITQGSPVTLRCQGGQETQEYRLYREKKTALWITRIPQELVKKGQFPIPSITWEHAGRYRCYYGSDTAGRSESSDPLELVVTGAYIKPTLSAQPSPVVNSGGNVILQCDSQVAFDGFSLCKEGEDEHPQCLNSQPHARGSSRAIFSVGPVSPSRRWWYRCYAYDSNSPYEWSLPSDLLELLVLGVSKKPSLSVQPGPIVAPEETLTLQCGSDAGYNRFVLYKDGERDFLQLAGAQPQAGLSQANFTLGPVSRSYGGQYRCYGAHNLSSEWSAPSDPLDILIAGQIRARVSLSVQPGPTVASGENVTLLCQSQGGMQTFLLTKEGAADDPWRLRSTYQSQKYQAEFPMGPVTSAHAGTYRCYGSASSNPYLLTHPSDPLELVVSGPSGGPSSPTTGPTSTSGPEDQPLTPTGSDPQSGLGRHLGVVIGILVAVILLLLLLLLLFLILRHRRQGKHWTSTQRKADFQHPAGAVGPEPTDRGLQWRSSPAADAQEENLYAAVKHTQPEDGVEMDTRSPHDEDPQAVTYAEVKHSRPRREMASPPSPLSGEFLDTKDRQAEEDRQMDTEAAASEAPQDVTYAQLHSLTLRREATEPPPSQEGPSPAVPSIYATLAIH

ILT2 mutant 3 = biological target: T3, ILT2 mutant 3 (human, UniProt Q8NHL6 24-650); test: flow cytometry, HEK293T cells with ILT2 mutant
T3 construct: Transfected in HEK-293T cells

ILT2 mutant 4-4 = biological target: T4, ILT2 mutant 4-4 (human, UniProt Q8NHL6 24-650); test: flow cytometry, HEK293T cells with ILT2 mutant
T4 construct: Transfected in HEK-293T cells
T4 sequence (Q8NHL6 other isoform, or with tags, fused parts or gaps mutant): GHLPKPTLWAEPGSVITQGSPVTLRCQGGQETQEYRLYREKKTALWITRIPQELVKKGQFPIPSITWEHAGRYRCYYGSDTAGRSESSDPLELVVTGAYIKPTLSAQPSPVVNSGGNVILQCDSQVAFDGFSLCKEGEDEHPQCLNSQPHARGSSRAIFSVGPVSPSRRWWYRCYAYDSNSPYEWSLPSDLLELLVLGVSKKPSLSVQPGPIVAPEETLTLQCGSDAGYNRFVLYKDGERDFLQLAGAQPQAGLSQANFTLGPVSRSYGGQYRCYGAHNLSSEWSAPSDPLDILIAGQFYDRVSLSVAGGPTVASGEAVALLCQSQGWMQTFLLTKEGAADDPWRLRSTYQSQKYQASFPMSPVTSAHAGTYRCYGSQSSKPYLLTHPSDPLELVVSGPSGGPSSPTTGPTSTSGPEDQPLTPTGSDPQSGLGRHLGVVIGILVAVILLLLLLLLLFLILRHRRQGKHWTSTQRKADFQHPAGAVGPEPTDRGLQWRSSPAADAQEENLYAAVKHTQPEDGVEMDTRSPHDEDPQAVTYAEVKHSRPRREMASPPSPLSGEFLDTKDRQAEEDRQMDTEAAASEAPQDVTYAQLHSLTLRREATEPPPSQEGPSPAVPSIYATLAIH

ILT2 mutant 8 = biological target: T5, ILT2 mutant 8 (human, UniProt Q8NHL6 24-650); test: flow cytometry, HEK293T cells with ILT2 mutant
T5 construct: Transfected in HEK-293T cells

ILT2 mutant 4-5 = biological target: T6, ILT2 mutant 4-5 (human, UniProt Q8NHL6 24-650); test: flow cytometry, HEK293T cells with ILT2 mutant
T6 construct: Transfected in HEK-293T cells

ILT2 mutant 4-1b = biological target: T7, ILT2 mutant 4-1b (human, UniProt Q8NHL6 24-650); test: flow cytometry, HEK293T cells with ILT2 mutant
T7 construct: Transfected in HEK-293T cells
T7 sequence (Q8NHL6 other isoform, or with tags, fused parts or gaps mutant): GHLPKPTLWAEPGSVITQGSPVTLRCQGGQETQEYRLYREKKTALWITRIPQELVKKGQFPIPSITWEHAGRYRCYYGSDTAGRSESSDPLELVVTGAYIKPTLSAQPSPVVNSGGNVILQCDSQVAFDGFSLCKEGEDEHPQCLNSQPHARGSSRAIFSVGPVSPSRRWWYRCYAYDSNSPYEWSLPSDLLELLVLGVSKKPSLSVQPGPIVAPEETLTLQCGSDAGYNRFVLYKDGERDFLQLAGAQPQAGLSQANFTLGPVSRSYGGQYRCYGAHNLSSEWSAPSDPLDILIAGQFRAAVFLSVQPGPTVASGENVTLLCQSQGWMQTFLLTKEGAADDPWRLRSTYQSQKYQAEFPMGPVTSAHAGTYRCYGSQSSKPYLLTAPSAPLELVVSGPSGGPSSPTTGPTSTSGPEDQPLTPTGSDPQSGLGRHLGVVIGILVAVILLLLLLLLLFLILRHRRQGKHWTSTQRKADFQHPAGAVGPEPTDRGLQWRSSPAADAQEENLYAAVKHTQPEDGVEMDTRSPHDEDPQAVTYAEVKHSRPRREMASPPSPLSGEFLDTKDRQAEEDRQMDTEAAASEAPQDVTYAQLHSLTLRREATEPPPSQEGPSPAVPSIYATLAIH

ILT2 mutant 4-2 = biological target: T8, ILT2 mutant 4-2 (human, UniProt Q8NHL6 24-650); test: flow cytometry, HEK293T cells with ILT2 mutant
T8 construct: Transfected in HEK-293T cells

ILT2 mutant 3b = biological target: T9, ILT2 mutant 3b (human, UniProt Q8NHL6 24-650); test: flow cytometry, HEK293T cells with ILT2 mutant
T9 construct: Transfected in HEK-293T cells
T9 sequence (Q8NHL6 other isoform, or with tags, fused parts or gaps mutant): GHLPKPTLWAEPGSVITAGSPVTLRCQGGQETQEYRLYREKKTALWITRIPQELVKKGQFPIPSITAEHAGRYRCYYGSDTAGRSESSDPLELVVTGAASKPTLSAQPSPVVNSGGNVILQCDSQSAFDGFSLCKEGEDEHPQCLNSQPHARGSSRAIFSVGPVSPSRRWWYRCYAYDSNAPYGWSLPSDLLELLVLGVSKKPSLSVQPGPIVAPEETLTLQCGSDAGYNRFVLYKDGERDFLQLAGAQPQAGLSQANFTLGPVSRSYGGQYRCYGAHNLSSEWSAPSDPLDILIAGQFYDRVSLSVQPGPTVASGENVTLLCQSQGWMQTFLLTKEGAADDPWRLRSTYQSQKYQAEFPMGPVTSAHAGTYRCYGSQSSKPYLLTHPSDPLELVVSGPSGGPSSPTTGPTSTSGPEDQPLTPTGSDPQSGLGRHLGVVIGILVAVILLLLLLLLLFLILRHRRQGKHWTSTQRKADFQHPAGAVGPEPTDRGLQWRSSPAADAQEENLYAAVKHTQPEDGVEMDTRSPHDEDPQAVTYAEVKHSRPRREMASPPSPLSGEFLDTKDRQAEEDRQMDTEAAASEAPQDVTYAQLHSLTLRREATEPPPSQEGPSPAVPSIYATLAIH

ILT2 mutant 7 = biological target: T10, ILT2 mutant 7 (human, UniProt Q8NHL6 24-650); test: flow cytometry, HEK293T cells with ILT2 mutant
T10 construct: Transfected in HEK-293T cells

ILT2 mutant 4 = biological target: T11, ILT2 mutant 4 (human, UniProt Q8NHL6 24-650); test: flow cytometry, HEK293T cells with ILT2 mutant
T11 construct: Transfected in HEK-293T cells

ILT2 mutant 4-3 = biological target: T12, ILT2 mutant 4-3 (human, UniProt Q8NHL6 24-650); test: flow cytometry, HEK293T cells with ILT2 mutant
T12 construct: Transfected in HEK-293T cells

ILT2 mutant 5 = biological target: T13, ILT2 mutant 5 (human, UniProt Q8NHL6 24-650); test: flow cytometry, HEK293T cells with ILT2 mutant
T13 construct: Transfected in HEK-293T cells
T13 sequence (Q8NHL6 other isoform, or with tags, fused parts or gaps mutant): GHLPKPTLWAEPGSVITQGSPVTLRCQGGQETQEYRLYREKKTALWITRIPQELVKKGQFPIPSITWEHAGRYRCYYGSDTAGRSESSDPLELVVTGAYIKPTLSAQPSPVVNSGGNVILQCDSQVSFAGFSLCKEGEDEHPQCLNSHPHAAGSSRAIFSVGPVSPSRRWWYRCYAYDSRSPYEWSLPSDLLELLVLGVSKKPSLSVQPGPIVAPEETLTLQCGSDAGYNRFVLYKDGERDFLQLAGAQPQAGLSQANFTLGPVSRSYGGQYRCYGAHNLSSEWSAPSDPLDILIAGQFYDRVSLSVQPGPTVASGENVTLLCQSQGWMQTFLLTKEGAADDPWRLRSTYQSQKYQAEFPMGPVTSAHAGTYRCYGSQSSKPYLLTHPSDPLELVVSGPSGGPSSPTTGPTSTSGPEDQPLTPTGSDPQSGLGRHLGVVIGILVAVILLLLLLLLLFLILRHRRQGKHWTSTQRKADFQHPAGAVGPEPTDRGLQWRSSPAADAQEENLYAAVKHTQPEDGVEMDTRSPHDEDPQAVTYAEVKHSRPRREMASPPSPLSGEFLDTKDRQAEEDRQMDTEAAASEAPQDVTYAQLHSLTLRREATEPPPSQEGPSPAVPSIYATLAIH

ILT2 mutant 6 = biological target: T14, ILT2 mutant 6 (human, UniProt Q8NHL6 24-650); test: flow cytometry, HEK293T cells with ILT2 mutant
T14 construct: Transfected in HEK-293T cells
T14 sequence (Q8NHL6 other isoform, or with tags, fused parts or gaps mutant): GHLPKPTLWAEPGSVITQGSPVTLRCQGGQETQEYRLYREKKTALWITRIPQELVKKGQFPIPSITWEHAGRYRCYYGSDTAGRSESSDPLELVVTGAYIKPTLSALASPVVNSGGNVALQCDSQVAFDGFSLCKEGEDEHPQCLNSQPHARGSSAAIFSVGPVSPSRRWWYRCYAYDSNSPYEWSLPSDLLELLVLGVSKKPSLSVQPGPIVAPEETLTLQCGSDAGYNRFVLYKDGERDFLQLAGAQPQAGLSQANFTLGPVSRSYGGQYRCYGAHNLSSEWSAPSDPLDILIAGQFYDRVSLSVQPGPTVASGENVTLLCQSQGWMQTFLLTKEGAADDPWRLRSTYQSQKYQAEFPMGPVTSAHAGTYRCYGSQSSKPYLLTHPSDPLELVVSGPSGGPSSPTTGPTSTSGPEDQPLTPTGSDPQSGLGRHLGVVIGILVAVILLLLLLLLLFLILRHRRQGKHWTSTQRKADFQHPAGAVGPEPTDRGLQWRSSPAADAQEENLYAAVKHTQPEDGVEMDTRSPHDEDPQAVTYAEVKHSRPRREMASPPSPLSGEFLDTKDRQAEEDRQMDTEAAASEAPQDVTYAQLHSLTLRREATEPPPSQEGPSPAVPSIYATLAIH

[2] = biological target: T15, Human ILT-2 (complete form) expressed at the cell surface (human, UniProt Q8NHL6 24-650); test: flow cytometry titration on cells transfected with wild-type ILT2 (WT)
T15 construct: also called LILRB1; CHO-ILT2
T15 sequence (Q8NHL6 24-650): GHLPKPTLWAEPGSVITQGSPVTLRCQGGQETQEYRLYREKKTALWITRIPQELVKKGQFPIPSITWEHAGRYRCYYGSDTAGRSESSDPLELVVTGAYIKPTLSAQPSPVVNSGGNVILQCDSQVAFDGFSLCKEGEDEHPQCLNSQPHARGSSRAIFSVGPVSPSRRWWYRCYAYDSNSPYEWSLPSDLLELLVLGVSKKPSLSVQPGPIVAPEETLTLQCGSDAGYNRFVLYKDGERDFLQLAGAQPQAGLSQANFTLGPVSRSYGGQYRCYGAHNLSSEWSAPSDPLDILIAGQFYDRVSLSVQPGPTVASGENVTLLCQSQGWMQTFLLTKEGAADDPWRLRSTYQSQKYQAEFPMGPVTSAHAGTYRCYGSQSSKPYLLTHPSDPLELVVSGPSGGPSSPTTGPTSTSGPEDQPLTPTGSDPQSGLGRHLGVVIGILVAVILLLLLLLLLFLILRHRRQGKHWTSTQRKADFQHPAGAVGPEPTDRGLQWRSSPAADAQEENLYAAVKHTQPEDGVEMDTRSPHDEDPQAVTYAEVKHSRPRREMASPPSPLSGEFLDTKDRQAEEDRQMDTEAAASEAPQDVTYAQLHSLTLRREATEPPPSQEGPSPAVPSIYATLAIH

ILT2 mutant 2 = biological target: T16, ILT2 mutant 2 (human, UniProt Q8NHL6 24-650); test: flow cytometry, HEK293T cells with ILT2 mutant
T16 construct: Transfected in HEK-293T cells; also called M2

T1 sequence (Q8NHL6 other isoform, or with tags, fused parts or gaps limits assumed): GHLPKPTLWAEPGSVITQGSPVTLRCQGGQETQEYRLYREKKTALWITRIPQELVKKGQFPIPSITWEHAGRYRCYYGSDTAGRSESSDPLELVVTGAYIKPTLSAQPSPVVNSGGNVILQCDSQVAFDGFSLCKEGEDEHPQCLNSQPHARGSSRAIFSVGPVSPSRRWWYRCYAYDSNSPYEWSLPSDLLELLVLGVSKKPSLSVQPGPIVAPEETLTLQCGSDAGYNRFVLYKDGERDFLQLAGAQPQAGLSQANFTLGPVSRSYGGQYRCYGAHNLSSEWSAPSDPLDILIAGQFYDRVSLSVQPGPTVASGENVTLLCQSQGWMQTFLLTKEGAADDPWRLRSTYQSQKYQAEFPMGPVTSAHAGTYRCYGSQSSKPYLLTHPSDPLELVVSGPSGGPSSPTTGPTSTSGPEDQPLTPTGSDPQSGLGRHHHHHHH

B1: 27H5 (antibody, human IgG1, V domains shown)
VH: QVQLKESGPGLVAPSQSLSITCTVSGFSLTSYGVSWVRQPPGKGLEWLGVIWGDGNTNYHSALISRLSISKDNSKSQVFLKLNSLQTDDTATYYCARTNWDGWFAYWGQGTLVTVSA
VL: DIVMTQSHKFMSTSVGDRVSITCKASQDVGTAVAWYQQKPGQSPKLLIYWASTRHTGVPDRFTGSGSGTDFTLTISNVQSEDLADYFCQQYRSYPLGTFGGGTKLEIK
kon [1]: 660000 M⁻¹ s⁻¹

B3: 3H5 (antibody, human IgG1, V domains shown)
VH: QVQLKESGPGLVAPSQSLSITCTVSGFSLTSYGVSWVRQPPGKGLEWLGVIWGDGSTNYHSALISRLSISKDNSKSQVFLKLNSLQTDDTATYYCAKPRWDDYAMDYWGQGTSVTVSS
VL: DIQMTQTTSSLSASLGDRVTISCRASQDISNYLNWYQQKPDGTVKLLIYYTSRLHSGVPSRFSGSGSGTDYSLTISNLEQEDIATYFCQQGNTLWTFGGGTKLEIK
EC50 (read off the curve) [2]: ~1 µg/mL
kon [1]: 280000 M⁻¹ s⁻¹

B5: 18E1 (antibody, human IgG1, V domains shown)
VH: QVQLQQSGAELVKPGASVRLSCKASGYTFTAHTIHWVKQRSGQGLEWIGWLYPGSGSIKYNEKFKDKATLTADKSSSTVYMELSRLTSEDSAVYFCARHTNWDFDYWGQGTTLTVSS
VL: NIVLTQSPASLAVSLGQRATISCKASQSVDYGGASYMNWYQQKPGQPPKLLIYAASNLESGIPARFSGSGSGTDLTLNIHPVEEEDAAMYYCQQSNEEPWTFGGGTKLEIK
kon [1]: 750000 M⁻¹ s⁻¹

Continued, values first:

binding result (ILT2 mutant 4-1): binds
binding result (ILT2 mutant 3): binds
binding result (ILT2 mutant 4-4): binds
binding result (ILT2 mutant 8): binds
binding result (ILT2 mutant 4-5): binds
binding result (ILT2 mutant 4-1b): binds
binding result (ILT2 mutant 4-2): binds
binding result (ILT2 mutant 3b): binds
binding result (ILT2 mutant 7): binds
binding result (ILT2 mutant 4): binds
binding result (ILT2 mutant 4-3): binds
binding result (ILT2 mutant 5): binds
binding result (ILT2 mutant 6): binds
B2: 12D12 (antibody, human IgG1, V domains shown)
VH: QVQLQQPGAELVKPGASVRMSCKASGYTFTSYWVHWVKQRPGQGLEWIGVIDPSDSYTSYNQNFKGKATLTVDTSSKTAYIHLSSLTSEDSAVYFCARGERYDGDYFAMDYWGQGTSVTVSS
VL: DIVMTQSPASLSVSVGETVTITCRASENIYSNLAWYQQKQGKSPQLLVYAATNLADGVPSRFSGSRSGTQYSLKINSLQSEDFGTYYCQHFWNTPRTFGGGTKLEIK
notes: also called 12012

binding result (ILT2 mutant 2): no binding
B4: 2H2A (antibody, V domains shown)
VH: EVKLEESGPELVKPGASVKLSCKASGYTFTNYYMQWVKQRPGQGLEWIGWIFPGSGESSYNEKFKGKATLSADTSSTTAYMQLSSLTSEDSAVYFCARTWNYDARWGYWGQGTTLTVSS
VL: DILMTQSPASLAVSLGQRATISCIPSESIDSYGISFMHWYQQKPGQPPKLLIYRASNLESGIPARFSGSGSRTDFTLTINPVEADDVATYYCQQSNEDPFTFGSGTKLELK
